# From a protein production outcome set (Wang et al. 2014)
# Test: label from the status in PepcDB records
# 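Note: failed if final PepcDB status was selected cloned or expressed and not failed if soluble or beyond.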
row,Sequence,protein production
1,TVVNDPSCESVVTTPQHSLRDANSPAGLLSIAEETLAEFLSKATGTAVDWVQMPGMKPGPDSVGIFAISQRCNGVAARACGLVSLEPMKIAEILKDRPSWFRDCRSLEVFTMFPAGNGGTIELVYMQTYAPTTLAPARDFWTLRYTTSLDNGSFVVCERSLSGSGAGPNAASASQFVRAEMLSSGYLIRPCDGGGSIIHIVDHLNLEAWSVPDVLRPLYESSKVVAQKMTISALRYIRQLAQESNGEVVYGLGRQPAVLRTFSQRLSRGFNDAVNGFGDDGWSTMHCDGAEDIIVAINSTKHLTNISNSV,not failed
2,MRDAYLMMVLMDALKEIFDLKEILKSPIRNKKVILFVSLVFILSLVLLYILVVNIKYFSYLGDIIFQNFQKHVENLKITLNEDNLHIILAIWKNNLTVCILNYILGIFSLFVIAVNSYILSYVLYKFGAESFIYLVLPHGIIEIPALILSASGGVLFNMGLVNFLINIKFGTKREVLYYIKESLKLLILSIILFIVAGIVEGTITFKIAKIMFS,failed
3,MTENSRKTATELFEFLDGLGISHTTKQHEPVFTVAESQSLRDLIPGGHTKNLFVKDKKDQYFVLTVEENAVVDLKSVHKTIGAASRVSFGRPEKMLEYLGVVPGSVTVFGAINDTARQVTFVLDSDLLENELVNGHPLSNDQTTTIASKDLIRFLEATGHAPLVLKVSE,not failed
4,MELPEKPQLYLITPPEFELSSFPDVLARVLDTHKVACVRLELAARDEDTVSRAADALREVTHARDIALVLSDHSVLADRLGLDGVHLSDAARSVRETRKLLGEDAIIGSFCGTSRHDGMSAGEAGADYICFGPVAASSLGDGSYVAQEVFEWWSEFIEVPVVAEGGLDAARIAQLTPFTDFFAFGQEVWSAEYPAQRLGELLEAMG,failed
5,MISSYGDVDMELRDEDLILEEVRDYLTAYLRNIHQEDIILDNERVVVDLNQLYNYGLMEFVEFLINNPQKGIDFIKECYNDAYYTLRNEYPTNVIIAVKNLPKIFKTTRKGKIFTIEDIRSKTLGKLVEFEGIIVMASKIRPMLKKAYYICPKCGREVVREIDILNTDSEKAVCECGAELNLIEHKSIYTDFQEIKVQQPLDLMENPEEPPKYITVFLENSPGIYAGRVKITGIPIKVKKSKKLPIYDIHVKALHCEVLDGEVKIKLTNSDIENIKKIAKRKDVVNILADRLIPEIKGHSAIKKAVLLQQIKGVKKPGKRADIHILLITDPGIGKTVILRKIAEIPGNLYGSVTTATGVGLTAAVVREKTEIGEDTWVIKPGLLVKAHKGTACIDELTVNKELQSYVLEAMESQTIHISKGGINAKLPAECAILAACNPRWGRFNPEVSVAEQINIPAPLLSRFDLIFPIRDVSDKDKDKDIAEYIVDLHRAYLDEKINREMGLDYLEVDGVKIDKEFIIKYIYYARQKKPIISEKAKELFVNYYVEMRKKHQITARQLEAAIRIAEAHAKAKLKDVVDEEDAKEAINIITECLKEIAYDPETGIFDVDKILGVSKKERDKLTTVYEIIKELSEKSELVEHEDIAEEAKKKGIKEDELENIIKKLIKYGDIDEPKPGRYRLL,failed
6,MKLKILLLTILTLGAMTVHAQKITGDWKGMLSIPQANMELELIFHITGEGADLSTTMDVPAQGATGIPVEKTSFADGKLTLSAAALQFTFKGTLSGNTIEGNVEQMGFSLPLTLQRFESKLPGNTALPSTEEELKALAALDKGNYKYKVEDYFAKPKASAFQLSPNGKYLSYMEKDDAGKRHVYVKEIATGTVKRAIEEKDELIKGYGWINDERLFFVMDKGGNENYHLFASNIDGSNTRDLTPFDGVKASILNMLKEQKDYMIISMNKNNPQIFEPYKLNVVTGELTQLYENKDAANPIQGYEFDKDGELRGYSRLVNGIESELYYKDLATGEFRLLKKTHWDDTFGVIAFNYASKNKDEAYVLTNLDSDKTRIVLYDLKQNKIIREIFANEDYDVSGLHLSRKRNYEIDLMAYEGEKSVVVPVSATYKELHKLMEKEFKGKEFSVVDYDDDETILLIAVQSDKLYGTYYQFDTRTKKFTLLYDLMPQLKEEDMAEMRPIKFKSRDGLTIHGFITLPKAALEGKKVPLIVNPHGGPQGIRDSWGFNPETQLFASRGYATLQVNFRISGGYGKEFLRAGFKQIGRKAMDDVEDGVRYAISQGWVDPDRIAIYGASHGGYATLMGLVKTPDLYACGVDYVGVSNIYTFFDSFPEYWKPFKEMVKEIWYDLDNPEEAAIAKEVSPFFQIDKINKPLFVVQGANDPRVNINESDQIVTALRARGFEVPYMVKYNEGHGFHREENSMELYRAMLGFFAKHLKK,failed
7,MRKKEENLNTASGLRIAMILLGIAVTPVLLSSSSLGNQLSSSSLISVVLLGGVILTLLSAITISVGEKARLPTYGIVKYSFGEKGAIAINILMAISLFGWIAVTANMFGHSVHDLLAQHGLEVPLALLVAAGCVIFVASTAFGFTVLGKIAQVAVPVIALVLCYILYVATHTEVAVPAAIVEMNTGVAVSTVVGTIIVLVATLPDFGSFVHNRKHALIAAGVTFLVAYPLLYWAGATPSAISGQGSLLGAMAVFGAVLPAALLLIFACVTGNAGNMFQGTLVVSTLLTRFPKWQITVALGILSAIVGSMDIMAWFIPFLLFLGIATPPVAGIYIADFFLYRRNGYQESVLAQESQIKVLTFAAWIIGAAVGFMTVKGLFTLTTIPSVDSILVACIAYAILSRASQHR,failed
8,MLTTFIVNSPILASIVFTLITIATYQFASACQQKWQYIWLNPMLFTISILVPFLLLIDINYQEYSQTTEILNLLLEPAIVALGMPLYQQFKQIRFYWREMTAILVLGITVVITVSFLLAMWLIKAPEIAIALSLKSVTTPIGITLTEQLFGDSSITAFAILIAGLFGALLGPQWLSFIGINSAKAQGLAIGSASHVIGTAVLVRKSAEHGAYSSVALILSAILTALISPWLIPLLQRLVT,failed
9,MKKLLTFIMACVISLGATAQISEKAFEKWHQNKYSMFIHFGLYSELGGVWEGNPVTRGYSEQIQSFAGIFSDWYGDTALRFNPTLFDADAIVSLAKEAGMRSIIITTKHHDGFCMFRTATTDYNSYDATPGKRDFIKEMAEACKRGGINFGIYFSLIDWHFPQAYPISSHNCDFITPQHHEFTKAQVTELLTNYGPISELWFDMGSNTPEQSKELYQLVHRLQPDCMVSGRLGNDQYDFSVMADNTYPEGSLQTAWQTAASMFDETWSYRSWQKRGDVHTKAMEKLRSLINVVSHGGNFLLNIGPKGDGSVVPFEREVLKEIGIWLKKNGEAIYGTEASPFREQFEWGTITRKGNNLYLILSGNRPADGKITLNVPGCKLQKADIKAIQKGQEMIFTLPADAYGKDIQVICATFDQPVKPQPMAAQRTPNYSYSCFDYYSNYRSTVSYQWSINKSNLNALEFTYTPQENGKELLVEVDGIPYTVTLDAGKAQALNLPSKTVWGQRYFCGPGSGLFDAPATIHTDPDKAPVRKGQWKEVNEEKAMFPSNILESYFLMQQVESPKAQDILVDVGAGNGIEIYLNGKSVMKHLNPYRCKFREEKVLLPLQKGSNQIVVRIYNRFEKETGYLLRPSAEQVIYKQKFTLPQVAKGKVHTVVVKQNNLPSIHKDTELSNLKVEAK,failed
10,MTIMLTPMQTEEFRSYLTYTTKHYAEEKVKAGTWLPEDAQLLSKQVFTDLLPRGLETPHHHLWSLKLNEKDIVGWLWIHAEPEHPQQEAFIYDFGLYEPYRGKGYAKQALAALDQAARSMGIRKLSLHVFAHNQTARKLYEQTGFQETDVVMSKKL,not failed
11,LELLEALSLPVWIFDIDHRRVFWANEAALQVWGAGSLLELQTRDMARDMSVSVAQRLAQYQQDFEREGASFVESWTLYPNGRPSVLKVKFRGIRVNGRMLMFCEAQN,failed
12,MGAIQFQTAPKLPVTVLLAAKNEAVNLPRCLAALGPAERVIVLDSHSTDATAEIARQHGAEVAQFDYRGGYPKKRQWALDTIPFGTPWILLLDADEVVPEDLWKEIGNVTRQPDADAYLITKGFHFLGRKFKHGGFSHSAVLLFKTGMARFEKLFDDDLNGLDMEIHERVVVDGRIGKLKTPLVHEDFKGLEAYITRHNKYSTWEAKVRHHYLTTGRYGEQTIKPRLFGNSQERRRFLKALIIRLPFEPQIWFIYHYLLRLGFLEGRPGLIASQIRAAYIAQARAKIYELRLNTPSRLEHHHHHH,failed
13,MPRVIPPENLGCPPFRALTFDSLGLIKVTEARGQERGIPTVVNTWGEMNASRSVLAASIDDRLRNPLLAVARKDGNVEVINPCNGDLHFSYSVFGDDGCSPEDNEISALHLFRKKIDDQTERSCTLLTCTKKGDVSLRSVKFPDAHGNSTDDASPKTWKACGSGEILVGKVDGSENFSLFGGKRVEANIWDLEQCTKIWSAKCPPKNNLGIFTPTWFTSATFLSKDDHRKFVTGTKSHQVRLYDISTQRRPVLSFDFRETAITSIAEDPDGHTIYVGNASADLASFDIRTGKLLGSFLGKCSGSIRSVVRHPQHQVIASCGLDRYLRVYDVKTRQLISAVFLKQHLTGLVFDSGFSGEETAVANTVAEAATEEKMTIMDQEDDETEKAPVKRKKSKKEKRSREIVFEGEDDEENEDEIEKAPVKTKKSKKEKRSREKVSEGEEKDELRSKKTREHKKKTKIVKHNQED,failed
14,MVEADRPGKLFIGGLNTETNEKALEAVFGKYGRIVEVLLMKDRETNKSRGFAFVTFESPADAKDAARDMNGKSLDGKAIKVEQATKPSFE,failed
15,RATPSGMLRINASVQAGRAVAPLVLAFLRRYPEMRVDLVTEGRLLDIVAEGFDMGIRPADLVPRDMIALPLGLPVRHAVVASPDWLVRHPEPRSPADLDPDACLRVRLPNGALLRWPFQKDGVPLPFEASGRLTVDEAAIAR,failed
16,MNILSRIFARTPSLRTRVVVATAIGAAIPVLIVGTVVWVGITNDRKERLDRRLDEAAGFAIPFVPRGLDEIPRSPNDQDALITVRRGNVIKSNSDITLPKLQDDYADTYVRGVRYRVRTVEIPGPEPTSVAVGATYDATVAETNNLHRRVLLICTFAIGAAAVFAWLLAAFAVRPFKQLAEQTRSIDAGDEAPRVEVHGASEAIEIAEAMRGMLQRIWNEQNRTKEALASARDFAAVSSHELRTPLTAMRTNLEVLSTLDLPDDQRKEVLNDVIRTQSRIEATLSALERLAQGELSTSDDHVPVDITDLLDRAAHDAARIYPDLDVSLVPSPTCIIVGLPAGLRLAVDNAIANAVKHGGATLVQLSAVSSRAGVEIAIDDNGSGVPEGERQVVFERFSRGSTASHSGSGLGLALVAQQAQLHGGTASLENSPLGGARLVLRLPGPS,not failed
17,MEKILLERNWQDLEKLVLVSSKKAIRTLVNRIYIKDGLGFWRAVEALGVASALAEEQKKDSSVELVRRYFWSLNEESGGNAWNAAEAIGSIMASNPKECGHFNWMLANLLEDESLQEGTLWGLLNLSINAPEVVDPLVERVYPFLEARDVNQRGLAVWIFSLMKACPSAKERWEIEEELHKTLIQDQEMAEIYWEGEYYHFPVSELLGKEIVTFYAREYKQADFTWNISVASSQKGLCWVGLGTPEKEEGELRTWVQKRVPGSLVIPRALPNQKVMEQLEDYFSGIRQEFNLPLDPRGTDFQLKVWEELCRIPYGETRSYGEIAQNIGNPKGQRAVGLANNKNPIAIIIPCHRVVGKKGDLVGYASGLDHKVRLLNWEAAHRHQ,failed
18,MTDQIREHLVSMLVHNKPGVMRKVANLFARRGFNISSITVGESETPGLSRLVIMVKGDDKTIEQIEKQAYKLVEVVKVTPIDPLPENRVEREMALIKVRFDEDKQEIFQLVEIFRGKIIDVSREGAIIEITGARSKVEAFINLLPQKQVEEIARTGIVAMNRWNVKEGEGF,not failed
19,MDKLKVAELFAGVGGFRLGLENTKEKIFDVTWANQWEPSKKIQHAFDCYNSRFITGEHVNKDIALISDEEIANTKADMVVGGFPCQDYSVARSLSGELGIQGKKGVLFWQIIRFIQNTYPKYLLLENVDRLLKSPSSQRGRDFGVMLSTLNELGYNVEWRVINAADYGNAQRRRRVFIFGYKQDLNYADLIDKYSLEDIVYNSGMFAKAFPIEKEPNKNRVNSSTITNDIVDISNNFSFQFYNSGIMKNGEILTIDTIPIFEKPTPLKEIVLKEVDDKYSLADEKIEKFKYLRGPKKIKRTSKDGHEYYFSEGGMSEFDSLDLPARTMLTSEASVNRSSHFLSIGGKFRTLTPIEAERLNGFPDNWTDTMPDRMRYFCMGNALVVPLVTRIGNQIEKIEKITNDDFSQLKLF,failed
